In the supplement of paper PMC7877785:
± gives the uncertainty stated by the source.

Assay: self-splicing fitness, log relative to wild type (ln ratio); higher = more splicing; Tetrahymena group I intron in knt gene, E. coli kanamycin selection, DiMSum; sequences stand for … in CUCUCU…GGAGGGAAAAGUUAUCAGGCAUGCACCUGGUAGCUAGUCUUUAAACCAAUAGAUUGCAUCGGUUUAAAAGGCAAGACCGUCAAAUUGCGGGAAAGGGGUCAACAGCCGUUCAGUACCAAGUCUCAGGGGAAACUUUGAGAUGGCCUUGCAAAGGGUAUGGUAAUAAGCUGACGGACAUGGUCCUAACCACGCAGCCAAGUCCUAAGUCAACAGAUCUUCUGUUGAUAUGGAUGCAGUUCACAGACUAAAUGUCGGUCGGGGAAGAUGUAUUCUUCUCAUAAGAUAUAGUCGGACCUCUCCUUAAUGGGAGCUAGCGGAUGAAGUGAUGCAACACUGGAGCCGCUGGGAACUAAUUUGUAUGCGAAAGUAUAUUGAUUAGUUUUGGAGUACUCGUGGUCG
Procedure, shortened: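 Colonies from six replicate transformations of E. coli BL21(DE3) were pooled and amplicon-sequenced on an Illumina HiSeq 2500. The library placed an intron with all eight P1ex-region nucleotides randomised inside the knt kanamycin-resistance gene on pET-22b(+), and cells grew overnight at 37°C or 30°C on LB agar with or without 25 μg/mL kanamycin (plus 100 μg/mL carbenicillin, 50 μM IPTG, 0.2% rhamnose). Fitness is the DiMSum error-weighted combination of wild-type-normalised replicate fold changes, kanamycin versus none.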

| Sequence | self-splicing fitness (ln) (30 °C) | self-splicing fitness (ln) (37 °C) |
| --- | --- | --- |
| ACAUAGCAAUAUUACGUGUA | -2.68 ± 0.21 | -2.11 ± 0.22 |
| AAAAAGCAAUAUUACGGGCG | -0.625 ± 0.075 | -0.721 ± 0.091 |
| UAACAGCAAUAUUACGUAGA | -2.81 ± 0.071 | -1.37 ± 0.086 |
| AUGAAGCAAUAUUACGACAA | 0.158 ± 0.11 | 0.0912 ± 0.12 |
| GCAUAGCAAUAUUACGGGUC | -3.17 ± 0.14 | -2.71 ± 0.17 |
| UAGUAGCAAUAUUACGGCCG | 0.0089 ± 0.17 | -0.367 ± 0.23 |
| UUCCAGCAAUAUUACGGCUA | 0.12 ± 0.12 | -0.25 ± 0.1 |
| CGUGAGCAAUAUUACGCACU | -0.892 ± 0.13 | -0.687 ± 0.13 |
| UUCGAGCAAUAUUACGGCCC | -1.75 ± 0.4 | – |
| AGGUAGCAAUAUUACGCGGG | -3.612 ± 0.026 | -2.38 ± 0.037 |
| AGUUAGCAAUAUUACGGAGU | -3.29 ± 0.3 | -1.3 ± 0.2 |
| ACUAAGCAAUAUUACGCGAC | -2.71 ± 0.19 | -2.78 ± 0.21 |
| AACGAGCAAUAUUACGCAGA | -4.04 ± 0.3 | -2.18 ± 0.23 |
| GGAUAGCAAUAUUACGCCAG | -2.63 ± 0.32 | -0.526 ± 0.34 |
| AAGCAGCAAUAUUACGCGUU | -2.2 ± 0.1 | -1.99 ± 0.11 |
| AAAAAGCAAUAUUACGUUUU | -2.42 ± 0.13 | -2.39 ± 0.14 |
| AAUCAGCAAUAUUACGCUUC | -1.77 ± 0.069 | -0.398 ± 0.088 |
| UCCGAGCAAUAUUACGAUGA | -0.4 ± 0.068 | -0.0382 ± 0.079 |
| CAUUAGCAAUAUUACGCACC | -2.94 ± 0.23 | -1.53 ± 0.19 |
| CCGCAGCAAUAUUACGAAGA | -2.83 ± 0.26 | -2.57 ± 0.24 |
| ACUAAGCAAUAUUACGGCCU | -0.171 ± 0.073 | -0.475 ± 0.087 |
| CACAAGCAAUAUUACGGAGC | -3.77 ± 0.29 | -3.25 ± 0.24 |
| GCCAAGCAAUAUUACGAUUC | -0.96 ± 0.062 | -0.482 ± 0.082 |
| UAUAAGCAAUAUUACGAAUC | – | -1.77 ± 0.36 |
| GAGCAGCAAUAUUACGAGCU | -2.58 ± 0.12 | -1.88 ± 0.18 |

| Sequence | self-splicing fitness (ln) (30 °C) | self-splicing fitness (ln) (37 °C) |
| --- | --- | --- |
| UUCGAGCAAUAUUACGUGUG | -2.52 ± 0.13 | -1.59 ± 0.12 |
| GCGAAGCAAUAUUACGGGAA | -3.48 ± 0.43 | -2.68 ± 0.33 |
| ACCAAGCAAUAUUACGGAAG | -3.74 ± 0.17 | -3.14 ± 0.19 |
| GCAAAGCAAUAUUACGAGUA | -2.1 ± 0.087 | -1.15 ± 0.086 |
| GAACAGCAAUAUUACGAUUG | -1.62 ± 0.082 | -1.26 ± 0.11 |
| ACGCAGCAAUAUUACGGUGC | -2.18 ± 0.15 | – |
| ACAUAGCAAUAUUACGUGAA | -2.13 ± 0.093 | -1.18 ± 0.1 |
| AUAAAGCAAUAUUACGGACU | -0.0332 ± 0.073 | 0.654 ± 0.092 |
| UACUAGCAAUAUUACGUGCA | -1.01 ± 0.073 | 0.166 ± 0.09 |
| CCGUAGCAAUAUUACGGUUG | -3.89 ± 0.24 | -1.73 ± 0.19 |
| AUAAAGCAAUAUUACGAUCG | -0.0352 ± 0.072 | 0.19 ± 0.097 |
| GUUUAGCAAUAUUACGUAAG | -0.762 ± 0.085 | 0.076 ± 0.15 |
| UACAAGCAAUAUUACGACCC | -2.31 ± 0.46 | – |
| UGACAGCAAUAUUACGACUU | -0.452 ± 0.068 | 0.389 ± 0.091 |
| CGCGAGCAAUAUUACGUAAU | -3.36 ± 0.27 | -3.23 ± 0.4 |
| CGGAAGCAAUAUUACGGUGC | -3.17 ± 0.19 | -2.28 ± 0.19 |
| CUUUAGCAAUAUUACGAUAC | -3.4 ± 0.39 | -2.42 ± 0.45 |
| UCAAAGCAAUAUUACGCUAA | -3.48 ± 0.25 | -2.87 ± 0.27 |
| UGGCAGCAAUAUUACGUGUG | -0.896 ± 0.043 | -0.192 ± 0.057 |
| AUUAAGCAAUAUUACGGUUG | -3.08 ± 0.21 | -2.56 ± 0.24 |
| AGAGAGCAAUAUUACGCAGU | – | -2.32 ± 0.35 |
| CAAGAGCAAUAUUACGAGAU | -3.29 ± 0.29 | -2.8 ± 0.28 |
| UUUCAGCAAUAUUACGCCAG | -1.4 ± 0.31 | -0.498 ± 0.24 |
| CUAAAGCAAUAUUACGCGUG | -1.09 ± 0.075 | 0.243 ± 0.11 |
| ACUGAGCAAUAUUACGUAGC | -3.07 ± 0.12 | -1.66 ± 0.13 |

| Sequence | self-splicing fitness (ln) (30 °C) | self-splicing fitness (ln) (37 °C) |
| --- | --- | --- |
| GGGCAGCAAUAUUACGGACU | -0.562 ± 0.07 | -0.255 ± 0.091 |
| UAUAAGCAAUAUUACGCAGG | -2.31 ± 0.13 | -0.616 ± 0.11 |
| AGUGAGCAAUAUUACGAACU | -2.3 ± 0.18 | -2.58 ± 0.33 |
| CCUCAGCAAUAUUACGUCAU | -3.03 ± 0.13 | -1.77 ± 0.18 |
| CUCAAGCAAUAUUACGUUGG | -2.93 ± 0.12 | -1.5 ± 0.13 |
| UUCCAGCAAUAUUACGGGAG | -3.38 ± 0.16 | -1.77 ± 0.14 |
| CGCCAGCAAUAUUACGCAUG | -0.241 ± 0.077 | -1.06 ± 0.1 |
| UUGUAGCAAUAUUACGCCCA | 0.762 ± 0.34 | -0.0943 ± 0.38 |
| UAUUAGCAAUAUUACGACUC | -2.24 ± 0.21 | -1.08 ± 0.3 |
| AUCAAGCAAUAUUACGGAGG | -2.43 ± 0.096 | -1.36 ± 0.13 |
| UAUCAGCAAUAUUACGGGUC | -2.27 ± 0.12 | -1.3 ± 0.12 |
| GGCCAGCAAUAUUACGCCAC | -4.58 ± 0.46 | -1.8 ± 0.49 |
| CGCCAGCAAUAUUACGCUCU | -1.6 ± 0.081 | -1.06 ± 0.097 |
| GCUGAGCAAUAUUACGGUAU | -2.63 ± 0.2 | -2.41 ± 0.2 |
| GAACAGCAAUAUUACGCAUU | -1.67 ± 0.095 | -0.812 ± 0.12 |
| UCCGAGCAAUAUUACGGUUU | -3.42 ± 0.22 | -1.02 ± 0.14 |
| UUUUAGCAAUAUUACGAUCA | -0.641 ± 0.15 | -0.391 ± 0.17 |
| GGUCAGCAAUAUUACGCGGU | -3.97 ± 0.39 | -2.26 ± 0.27 |
| GCCUAGCAAUAUUACGAGUU | -1.58 ± 0.061 | -0.309 ± 0.078 |
| CUAGAGCAAUAUUACGUAGA | -3.37 ± 0.16 | -1.5 ± 0.15 |
| UGUCAGCAAUAUUACGUCGG | -1.32 ± 0.078 | -0.266 ± 0.099 |
| GCAUAGCAAUAUUACGCGAC | -2.79 ± 0.16 | 0.0921 ± 0.13 |
| AAGUAGCAAUAUUACGCAUA | -1.31 ± 0.15 | -0.759 ± 0.15 |
| CCACAGCAAUAUUACGAAGA | -1.5 ± 0.15 | -2.55 ± 0.24 |
| CCGAAGCAAUAUUACGGGUA | -4.26 ± 0.3 | -2.35 ± 0.22 |

| Sequence | self-splicing fitness (ln) (30 °C) | self-splicing fitness (ln) (37 °C) |
| --- | --- | --- |
| CGCUAGCAAUAUUACGUAUG | -1.27 ± 0.066 | -0.236 ± 0.09 |
| CCACAGCAAUAUUACGCUUG | -2.66 ± 0.075 | -1.96 ± 0.083 |
| AUUAAGCAAUAUUACGGGCG | -0.789 ± 0.085 | -0.228 ± 0.11 |
| UAAGAGCAAUAUUACGUCAU | -2.21 ± 0.14 | -2.22 ± 0.24 |
| AGGCAGCAAUAUUACGUCGU | -0.986 ± 0.058 | -0.962 ± 0.088 |
| CUUAAGCAAUAUUACGAUGC | -3.42 ± 0.35 | -2.1 ± 0.33 |
| CGGUAGCAAUAUUACGGAGU | -3.33 ± 0.28 | -3.27 ± 0.35 |
| GAGAAGCAAUAUUACGCGGA | -2.51 ± 0.22 | -1.39 ± 0.17 |
| GAGUAGCAAUAUUACGCGGA | -2.61 ± 0.17 | -2.06 ± 0.17 |
| GUAUAGCAAUAUUACGUCCG | -2.98 ± 0.18 | -1.21 ± 0.17 |
| UACUAGCAAUAUUACGCAAU | -3.82 ± 0.23 | -1.63 ± 0.16 |
| GGGUAGCAAUAUUACGAGCG | -1.3 ± 0.12 | -0.426 ± 0.12 |
| GUCGAGCAAUAUUACGUUUG | -2.54 ± 0.28 | -2.11 ± 0.24 |
| AAUCAGCAAUAUUACGCUGA | -2.61 ± 0.17 | -1.76 ± 0.24 |
| AUGUAGCAAUAUUACGGGUA | -2.63 ± 0.24 | -0.0625 ± 0.14 |
| CUUAAGCAAUAUUACGUGAC | -1.91 ± 0.13 | -2.06 ± 0.14 |
| AGUCAGCAAUAUUACGCGAC | -2.59 ± 0.26 | -3.14 ± 0.35 |
| ACGAAGCAAUAUUACGGGCA | -1.46 ± 0.068 | -0.631 ± 0.075 |
| UCUAAGCAAUAUUACGUAUU | -3.09 ± 0.2 | -2.16 ± 0.2 |
| GCUUAGCAAUAUUACGUGAG | -1.45 ± 0.07 | -1.2 ± 0.071 |
| CCUUAGCAAUAUUACGUAUA | – | -3.25 ± 0.37 |
| GUUUAGCAAUAUUACGCCCG | -3.02 ± 0.24 | -1.18 ± 0.24 |
